The values that follow come from the supplement of paper PMC5998384.

In data set [1] the test system is HeLa Kyoto. Nature of the data set: solubility in G1/S (NP-40 vs SDS abundance) (log2 ratio); higher = more soluble. Conditions: cell cycle stage: G1/S.
Data set [2] has as its system HeLa Kyoto. Description: melting temperature (median over replicates), in situ; higher = more thermally stable.
The subject of data set [3] is HeLa Kyoto. Nature of the data set: solubility change mitosis vs G1/S (difference of NP-40 vs SDS log2 ratios) (log2 ratio difference); higher = more soluble in mitosis.
The subject of data set [4] is HeLa Kyoto. Nature of the data set: thermal stability score vs G1/S (z-score of summed log2 fold changes over temperatures); higher = more thermally stable than in G1/S.
Setting [5] is: cell cycle stage: early G1 (4.5 h after nocodazole release).
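Wherever melting temperature (median over replicates), in situ is given: HeLa Kyoto cells synchronized by double thymidine or nocodazole block, proteins quantified by TMT10plex mass spectrometry, three independent biological replicates.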
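Wherever solubility change mitosis vs G1/S (difference of NP-40 vs SDS log2 ratios) is given: synchronized HeLa Kyoto cells (double thymidine block for G1/S, nocodazole release for mitosis), protein amounts in NP-40 versus SDS lysates quantified by mass spectrometry, three biological replicates.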
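Wherever solubility in G1/S (NP-40 vs SDS abundance) is given: HeLa Kyoto cells arrested at G1/S by double thymidine block, proteins quantified by TMT10plex mass spectrometry in mild NP-40 versus SDS extracts, three biological replicates.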
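Wherever thermal stability score vs G1/S (z-score of summed log2 fold changes over temperatures) is given: synchronized HeLa Kyoto cells, proteins quantified by TMT10plex mass spectrometry, three biological replicates, mitosis taken 0.5 h after nocodazole release, G1/S directly after double thymidine block.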

As to “MALLSEGLDEVPAACLSPCGPPNPTELFSESRRLALEELVAGGPEAFAAFLRRERLARFLNPDEVHAILRAAERPGEEGAAAAAAAEDSFGSSHDCSSGTYFPEQSDLEPPLLELGWPAFYQGAYRGATRVETHFQPRGAGEGGPYGCKDALRQQLRSAREVIAVVMDVFTDIDIFRDLQEICRKQGVAVYILLDQALLSQFLDMCMDLKVHPEQEKLMTVRTITGNIYYARSGTKIIGKVHEKFTLIDGIRVATGSYSFTWTDGKLNSSNLVILSGQVVEHFDLEFRILYAQSKPISPKLLSHFQSSNKFDHLTNRKPQSKELTLGNLLRMRLARLSSTPRKADLDPEMPAEGKAERKPHDCESSTVSEEDYFSSHRDELQSRKAIDAATQTEPGEEMPGLSVSEVGTQTSITTACAGTQTAVITRIASSQTTIWSRSTTTQTDMDENILFPRGTQSTEGSPVSKMSVSRSSSLKSSSSVSSQGSVASSTGSPASIRTTDFHNPGYPKYLGTPHLELYLSDSLRNLNKERQFHFAGIRSRLNHMLAMLSRRTLFTENHLGLHSGNFSRVNLLAVRDVALYPSYQ [FAM83D]”, the “solubility in G1/S (log2)” value in data set [1] was -0.213. Further, the figures for the melting temperature in data set [2] (cell cycle stage: G1/S) and in data set [2] (cell cycle stage: mitosis) were 49.8 °C and 49.4 °C, respectively. The “solubility change mitosis (log2)” value in data set [3] is -0.133. Besides, the thermal stability score was 0.13 in data set [4] (setting [5]) and -0.391 in data set [4] (cell cycle stage: mitosis).
“MALLVLGLVSCTFFLAVNGLYSSSDDVIELTPSNFNREVIQSDSLWLVEFYAPWCGHCQRLTPEWKKAATALKDVVKVGAVDADKHHSLGGQYGVQGFPTIKIFGSNKNRPEDYQGGRTGEAIVDAALSALRQLVKDRLGGRSGGYSSGKQGRSDSSSKKDVIELTDDSFDKNVLDSEDVWMVEFYAPWCGHCKNLEPEWAAAASEVKEQTKGKVKLAAVDATVNQVLASRYGIRGFPTIKIFQKGESPVDYDGGRTRSDIVSRALDLFSDNAPPPELLEIINEDIAKRTCEEHQLCVVAVLPHILDTGAAGRNSYLEVLLKLADKYKKKMWGWLWTEAGAQSELETALGIGGFGYPAMAAINARKMKFALLKGSFSEQGINEFLRELSFGRGSTAPVGGGAFPTIVEREPWDGRDGELPVEDDIDLSDVELDDLGKDEL [PDIA6]”: the “solubility in G1/S (log2)” value in data set [1] was determined as 0.44. Also, the melting temperature is 55.1 °C in data set [2] (cell cycle stage: G1/S) and 56.2 °C in data set [2] (cell cycle stage: mitosis). In addition, the “solubility change mitosis (log2)” value in data set [3] is -0.1. The values for the thermal stability score in data set [4] (setting [5]) and in data set [4] (cell cycle stage: mitosis) were 4.84 and 4.76, respectively.
On to “MALNKNHSEGGGVIVNNTESILMSYDHVELTFNDMKNVPEAFKGTKKGTVYLTPYRVIFLSKGKDAMQSFMMPFYLMKDCEIKQPVFGANYIKGTVKAEAGGGWEGSASYKLTFTAGGAIEFGQRMLQVASQASRGEVPSGAYGYSYMPSGAYVYPPPVANGMYPCPPGYPYPPPPPEFYPGPPMMDGAMGYVQPPPPPYPGPMEPPVSGPDVPSTPAAEAKAAEAAASAYYNPGNPHNVYMPTSQPPPPPYYPPEDKKTQ [WBP2]”, for which the “solubility in G1/S (log2)” value in data set [1] worked out at 0.283. In addition, the melting temperature in data set [2] (cell cycle stage: G1/S) was 54.1 °C; in data set [2] (cell cycle stage: mitosis), 54.5 °C. The “solubility change mitosis (log2)” value in data set [3] was -0.0665. Also, the thermal stability score was 0.182 in data set [4] (setting [5]) and -1.41 in data set [4] (cell cycle stage: mitosis).
In the case of “MALPIIVKWGGQEYSVTTLSEDDTVLDLKQFLKTLTGVLPERQKLLGLKVKGKPAENDVKLGALKLKPNTKIMMMGTREESLEDVLGPPPDNDDVVNDFDIEDEVVEVENREENLLKISRRVKEYKVEILNPPREGKKLLVLDVDYTLFDHRSCAETGVELMRPYLHEFLTSAYEDYDIVIWSATNMKWIEAKMKELGVSTNANYKITFMLDSAAMITVHTPRRGLIDVKPLGVIWGKFSEFYSKKNTIMFDDIGRNFLMNPQNGLKIRPFMKAHLNRDKDKELLKLTQYLKEIAKLDDFLDLNHKYWERYLSKKQGQ [UBLCP1]”, the “solubility in G1/S (log2)” value in data set [1] was 0.159. Moreover, the results for the melting temperature in data set [2] (cell cycle stage: G1/S) and in data set [2] (cell cycle stage: mitosis) were 49.5 °C and 50 °C, respectively. Further, in data set [3], the “solubility change mitosis (log2)” value was -0.142. The thermal stability score in data set [4] (setting [5]) was 0.941; in data set [4] (cell cycle stage: mitosis), 2.39.
Turning to “MALQGISVVELSGLAPGPFCAMVLADFGARVVRVDRPGSRYDVSRLGRGKRSLVLDLKQPRGAAVLRRLCKRSDVLLEPFRRGVMEKLQLGPEILQRENPRLIYARLSGFGQSGSFCRLAGHDINYLALSGVLSKIGRSGENPYAPLNLLADFAGGGLMCALGIIMALFDRTRTGKGQVIDANMVEGTAYLSSFLWKTQKLSLWEAPRGQNMLDGGAPFYTTYRTADGEFMAVGAIEPQFYELLIKGLGLKSDELPNQMSMDDWPEMKKKFADVFAEKTKAEWCQIFDGTDACVTPVLTFEEVVHHDHNKERGSFITSEEQDVSPRPAPLLLNTPAIPSFKRDPFIGEHTEEILEEFGFSREEIYQLNSDKIIESNKVKASL [AMACR]”, in data set [1], the “solubility in G1/S (log2)” value was found to be 0.155. For the same sequence, the figures for the melting temperature in data set [2] (cell cycle stage: G1/S) and in data set [2] (cell cycle stage: mitosis) were 52.1 °C and 52.5 °C, respectively. Besides, the “solubility change mitosis (log2)” value in data set [3] is -0.0545. Further, the thermal stability score stood at 0.0452 in data set [4] (setting [5]) and 0.6 in data set [4] (cell cycle stage: mitosis).
